Experimental findings from patent publication US20230312722A1 (NONA BIOSCIENCES SUZHOU, published 2023) are described below.

For experiment [1], the target named is T1, human B7H4 on the cell surface (human, UniProt Q7Z7D3 25-282).
T1 construct: whole, on cells; also called CHOK1/hu B7H4; B7H4 on SK-BR-3
T1 sequence (looked up): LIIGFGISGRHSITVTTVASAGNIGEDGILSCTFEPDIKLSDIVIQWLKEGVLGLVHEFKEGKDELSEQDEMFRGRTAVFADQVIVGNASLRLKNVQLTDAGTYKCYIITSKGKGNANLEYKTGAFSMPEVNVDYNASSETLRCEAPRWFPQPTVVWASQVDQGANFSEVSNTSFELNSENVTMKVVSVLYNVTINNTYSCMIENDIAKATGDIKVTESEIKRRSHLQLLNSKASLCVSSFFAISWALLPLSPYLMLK
Briefly: FACS, SK-BR-3 cells. The method, then: (§1) This example is intended to investigate the in vitro binding activity of anti-human B7H4 H2L2 monoclonal antibody to human/cynomolgus monkey/mouse B7H4. Antibody binding experiments at the cellular level were performed using CHOK1 cell line overexpressing human B7H4 (CHOK1/hu B7H4, Harbour BioMed), CHOK1 cell line overexpressing cynomolgus monkey B7H4 (CHOK1/cyno B7H4, Harbour BioMed), CHOK1 cell line overexpressing mouse B7H4 (CHOK1/m B7H4, Harbour BioMed) and SK-BR-3 cell line (ATCC® HTB-30) highly expressing human B7H4. Briefly, CHOK1/hu B7H4 cells, CHOK1/cyno B7H4 cells, CHOK1/m B7H4 cells or SK-BR-3 cells were digested and resuspended with PBS containing 2% BSA. The cell density was adjusted to 1×10⁶ cells/mL. The cells were seeded in a 96-well V-bottom plate (Corning, #3894) at 100 μL/well, followed by the addition of test antibodies diluted in a 3-fold concentration gradient of 2 times the final concentration, each at 100 μL/well. The cells were incubated at 4° C. for 2 h away from light. Thereafter, the cells in each well were rinsed twice with 100 μL of pre-cooled PBS containing 2% BSA, and centrifuged at 500 g at 4° C. for 5 min, and then the supernatant was discarded. Then 100 μL of a fluorescent secondary antibody (Alexa Fluor 488-conjugated AffiniPure Goat Anti-Human IgG, Fcγ Fragment Specific, Jackson, #109-545-098, 1:500 diluted) was added to each well. The plate was incubated away from light at 4° C. for 1 h. The cells in each well were washed twice with 100 μL of pre-cooled PBS containing 2% BSA, and centrifuged at 500 g at 4° C. for 5 minutes, and then the supernatant was discarded. Finally, the cells in each well were resuspended with 200 μL of pre-cooled PBS containing 2% BSA, and the fluorescence signal values were read using an ACEA Novocyte3000 flow cytometer.
(In general: In flow cytometry, cells or beads pass a laser one at a time.)

The target of experiment [2] is T1, human B7H4 on the cell surface. The experiment is described as follows: FACS, CHOK1/hu B7H4 cells. Here is the method: as §1
For experiment [3], the target named is T2, cynomolgus monkey B7H4 on the cell surface (cynomolgus monkey, UniProt A0A2K5U6P5 25-282).
T2 construct: whole, on cells; also called CHOK1/cyno B7H4
T2 sequence: T1 sequence (looked up) with L53I, F242L, S252A
Briefly: FACS, CHOK1/cyno B7H4 cells. Here is the method:
as §1

For experiment [4], the target named is T3, mouse B7H4 on the cell surface (mouse, UniProt Q7TSP5 25-257).
T3 construct: whole, on cells; also called CHOK1/m B7H4
T3 sequence (looked up): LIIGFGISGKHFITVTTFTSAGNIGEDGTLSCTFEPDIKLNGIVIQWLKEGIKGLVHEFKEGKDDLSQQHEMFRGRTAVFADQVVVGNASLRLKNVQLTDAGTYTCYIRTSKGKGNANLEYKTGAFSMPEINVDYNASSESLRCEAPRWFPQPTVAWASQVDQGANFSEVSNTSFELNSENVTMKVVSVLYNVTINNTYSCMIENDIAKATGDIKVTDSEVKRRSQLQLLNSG
The experiment is described as follows: FACS, CHOK1/m B7H4 cells (FIG. 5). Here is the method: as §1, with “Then 100 μL of a fluorescent secondary antibody (Alexa Fluor 488-conjugated AffiniPure Goat Anti-Human IgG, Fcγ Fragment Specific, Jackson, #109-545-098, 1:500 diluted) was added to each well. The plate was incubated away from light at 4° C. for 1 h. The cells in each well were washed twice with 100 μL of pre-cooled PBS containing 2% BSA, and centrifuged at 500 g at 4° C. for 5 minutes, and then the supernatant was discarded.” left out

Experiment [5] deals with T1, human B7H4 on the cell surface. The experiment is described as follows: FACS on MDA-MB-468 cells.
Experiment [6] has the same target. The experiment is described as follows: FACS, tumor cells (table head: SK-BR-3). Here is the method:
as §1, with “Then 100 μL of a fluorescent secondary antibody (Alexa Fluor 488-conjugated AffiniPure Goat Anti-Human IgG, Fcγ Fragment Specific, Jackson, #109-545-098, 1:500 diluted) was added to each well. The plate was incubated away from light at 4° C. for 1 h. The cells in each well were washed twice with 100 μL of pre-cooled PBS containing 2% BSA, and centrifuged at 500 g at 4° C. for 5 minutes, and then the supernatant was discarded.” left out

Experiment [7] has as its target T4, human B7-H4 (recombinant protein of the BLI affinity assay, Example 7.2) (human, UniProt Q7Z7D3 29-258, limits assumed).
T4 construct: also called human B7H4 protein
T4 sequence (looked up): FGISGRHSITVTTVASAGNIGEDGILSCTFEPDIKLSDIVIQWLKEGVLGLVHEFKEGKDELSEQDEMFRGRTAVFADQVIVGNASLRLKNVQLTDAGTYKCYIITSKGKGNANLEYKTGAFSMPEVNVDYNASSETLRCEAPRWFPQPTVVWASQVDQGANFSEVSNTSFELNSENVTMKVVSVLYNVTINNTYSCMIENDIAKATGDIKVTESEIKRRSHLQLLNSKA
The experiment is described as follows: BLI (Octet Red 96e), antibody captured on AHC sensor, human B7-H4 in solution, 1:1 global fit. The method, then:
When the affinity of the antigen for the antibody was determined, the rotation speed of the sensor was set at 1000 rpm/min. The AHC sensors (Fortebio, #18-5060) placed in a row were equilibrated for 10 minutes in a test buffer before the AHC sensors were used to capture the B7-H4 antibodies at a capture height of 0.7 nm; the AHC sensors, after equilibrated in the buffer for 120 s, bound to 2-fold serially diluted human B7-H4 (concentrations were 50 nM-3.125 nM and 0 nM) for 180 s, followed by dissociation for 300 s. Finally, the AHC sensor was immersed in a 10 mM glycine-hydrochloric acid solution at pH 1.5 for regeneration to elute the proteins bound to the sensor.
When data analysis was performed using Octet Data Analysis software (Fortebio, version 11.0), 0 nM was taken as a reference well, and reference subtraction was performed; the “1:1 Global fitting” method was selected to fit the data, and the kinetics parameters of the binding of antigens to antigen-binding proteins were calculated, with kₒₙ (1/Ms) values, kdis (1/s) values and KD(M) values obtained (see Table 7-2).
For orientation: Biolayer interferometry detects binding as a change in optical thickness at a sensor tip.

Experiment [8] addresses T1, human B7H4 on the cell surface. Briefly: FACS on MDA-MB-468 cells (head of the figure); the same number stands in Table 2-3 of the text under the head SK-BR-3.
Experiment [9] has the same target. The experiment is described as follows: FACS on MDA-MB-468 cells; in the drawn table the number stands under the head 'EC50 (nM)' (the two heads are interchanged).
Experiment [10] has the same target. Briefly: FACS on MDA-MB-468 cells; in the drawn table the number stands under the head 'Maximum MFI' (the two heads are interchanged); the head says nM, the axis of the curve µg/mL.

Numbering of substitutions follows the chain as printed. In names and notes the source's numbering stands.

B1: PR002038 (antibody, human IgG1, kappa, V domains shown)
VH: QVQLVQSGAEVKKPGSSMRVSCKASEDTFSSYAISWVRQAPGQGLEWMGGTAPIFGTTNYAQKFQGRVTITADKSTSTAYMELSSLRSEDTAVYYCARGGPYFDYWGQGTLVTVSS
VL: DIQLTQSPATLSVSPGERATLSCRASQSVSSNLAWYQQKPGQAPRLLIYGDYIRATGIPARFSGSGSGTEFTLTISSLQSEDIATYYCQQYVDLPITFGQGTRLEIKR
notes: Initial antibody, human IgG1; also called 1025_B-2A1
In general, EC50 refers to the concentration giving half of the maximal effect. Take B1: the EC50 turned out to be 85.6 nM in experiment [1], 20 nM in experiment [2] and 24.8 nM in experiment [3]. Besides, the “Maximum MFI” value in experiment [1] was 82800 MFI; in experiment [2] it was 1.15e+06 MFI; in experiment [3], 677000 MFI. Also, the binding result in experiment [4] was “no binding”.

B2: PR003369 (antibody, human IgG1, kappa, V domains shown)
VH: QVQLVESGGGVVQPGRSLRLSCAASGFTFRSFGMHWVRQAPGKGLEWVAVISYDASNEYYADSVKGRFIISRDNSKDTLYLQMNSLRAGDTAVYYCAKGGALRWYFAYWGQGTLVTVSS
VL: EIVMTQSPATLSVSPGERATLSCRASQSISSNLGWYQQKPGQAPRLLIYGASTRATGIPARFSGSGSGTEFTLTISSLQSEDFAVYYCQQYRSWPPLTFGGGTKVEIKR
notes: L: N92R; Fc S239D, I332E), human IgG1
One may read the EC50 (read off the curve) as the concentration giving half of the maximal effect. As a reminder, the Kd is the concentration at which binding is half-saturated. In general, koff refers to the rate constant with which the complex falls apart. The term kon denotes a measure of how fast the partners come together. On to B2, for which the “EC50 (read off the curve)” value in experiment [5] is around 0.05 µg/mL. Besides, the EC50 in [6] came out at 0.434 nM; in experiment [8], 0.434 nM; in experiment [10], 0.0508 nM. The equilibrium dissociation constant (Kd) in experiment [7] worked out at 1.39 nM. Further, the koff in experiment [7] was 0.000394 s⁻¹. Besides, the kon in experiment [7] was 283000 M⁻¹ s⁻¹. For the same molecule, the “Maximum MFI” value in experiment [9] came to 204000.
